Experimental data: publication PMC6289460

System: ArdK (intact) (Escherichia coli A56-1S (plasmid pA56-1S))
Assay: BLI
Conditions: EMSA: 20 mM Tris pH 7.5, 100 mM KCl, 2 mM DTT, 10 mM EDTA, 50 mg/L poly(dI-dC), 20 C, 20 min, 3 fmol probe, 30 pmol protein; BLI: 1x kinetics buffer (Pall …)

107 bp probe upstream of blaIMP-6
Kd: 0.0293 µM
